Measured values: US20100209425A1

Assays:
[1] = target: hen-egg lysozyme (HEL) from chicken egg white (chicken) (UniProt P00698); assay: flow cytometry titration of biotinylated HEL on yeast-displayed D1.3 scFv; PBS with BSA
[2] = target: hen-egg lysozyme (HEL) from chicken egg white (chicken) (UniProt P00698); assay: yeast display immunoprecipitation with 5x10^7 yeast from RBE4 lysate holding 34 nM HEL, gel densitometry
[3] = target: hen-egg lysozyme (HEL) from chicken egg white (chicken) (UniProt P00698); assay: flow cytometry titration of biotinylated HEL on yeast-displayed D1.3 scFv; PBS with n-octyl-beta-D-glucopyranoside
[4] = target: hen-egg lysozyme (HEL) from chicken egg white (chicken) (UniProt P00698); assay: flow cytometry titration of biotinylated HEL on yeast-displayed D1.3 scFv; PBS with Triton X-100

UniProt P00698, sequence (P00698 19-147): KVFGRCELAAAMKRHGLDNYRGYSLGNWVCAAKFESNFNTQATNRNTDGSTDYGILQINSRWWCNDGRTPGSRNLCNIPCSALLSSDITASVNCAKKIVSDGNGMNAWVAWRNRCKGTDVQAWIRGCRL

Kd [1]: 1.07 nM | percent of the theoretical immunoprecipitation yield [2]: 70% | Kd [3]: 2.61 nM | Kd [4]: 0.488 nM
Substance: anti-hen egg lysozyme D1.3 scFv displayed on yeast
